Assay results as given in patent publication US20230382979A1 (ADAPTIVE BIOTECHNOLOGIES, published 2023).
Substitutions are numbered along the chain they refer to.

B1: antibody 2050 (antibody, V domains shown)
VH: QVQLVQSGAEVKKPGASVKVPCKVSGYTFTDHFIHWVRQAPGQGLEWMGWISPNSGGRNYTQKFQGRVTLTRDTAITTVHMDLSSLTPDDTAVYYCARDVRWAQLQGGFDLWGQGTMVTVSS
VL: QSALTQPASVSGSPGQSITISCTGTSSDVGSYNLVSWYQQHPGKAPKLMIYEVSKRPSGVSNRFSGSKSGNTASLTISGLQADDEADYYCCSYAGDNNFLFGGGTSLTVL
B2: antibody 1814 (antibody, V domains shown)
VH: QVQLQESGPGLVKPSETLSLTCSVSGGSINYYYWSWIRQTPGQGLEWIGFIYSSGTTNYNPSLKSRVTMSKDTAKKQFSLKLTSVTAADSAVYYCARHSRSCTNGVCQTYYYYALDVWGHGTTVTVSS
VL: QSVLTQPPSVSGAPGQRVTISCTGSGSNIGSGYDVHWYQQLPGRAPKLLIYRNRNRPSGVPDRFSGSKSGTSASLAIAGLQSEDEGDYFCQSYDGRLGESAVFGGGTRLTVL
B3: antibody 2706 (antibody, V domains shown)
VH: QVQLVQSGAEVKKPGSSVKVSCKASGGTFSTYAISWVRQAPGQGLEWMGGIIPLFATANYAQNFQGRVTITADKSTSTAYMELSSLRSEDTAVYYCASVRLHLEELSLSHQGDYYYGLDVWGQGTTVTVSS
VL: DIQMTQSPSSLSASVADRVTITCQASQDISHYLNWYQQKPGKAPQLLIYDASKLETGAPSRFSGSGSGTDFTFTISSLQPEDIATYYCQQYDHLPLTFGGGSKVEIK
B4: antibody 2075 (antibody, V domains shown)
VH: QVQLVQSGAEVKKPGSSVKVSCTASGGTFSIYAFSWVRQAPGQGLEWMGGIIPISGTAGYAQKFQGRVTITADESTSTAYMELSSLRSEDTAIYYCARKYRYCSGSRCYTYFDYWGQGTLVTVSS
VL: DIQMTQSPSSLSASVGDRVTITCRASQSISSFLNWYQQKPGKAPKLLIYAASSLQSGVPSRFSGSGSGTDFTLTISSLQPEDSATYYCQQSYSTITFGQGTRLEIK
B5: antibody 2020 (antibody, V domains shown)
VH: QVQLVQSGAEVKKPGASVKVSCKASGYTFTDYFMHWVRQAPGQGLEWMGWVNPLSGGTNFAQKFQGRVTMTSDTSITTVYMELSRLRSDDTAVYYCARDPPLYSSTYGMDVWGQGTTVTVSS
VL: QSALTQPASVSGSPGQSITISCTGTSSDVGAYNYVSWYQQHPGKAPKLMIYDVSDRPSGVSNRFSGSKSGNTASLTISGLQAEDEADYYCSSYTISSSVVFGGGTKLTVL
B6: antibody 1823 (antibody, V domains shown)
VH: EVQLVESGGGLVKPGGSLRLSCVASGFSFGLYTMNWVRQAPGKGLEWVSYISSSTSYKYYADSVKGRVSVSRDNAKNSLYLQLNGLRVEDTAVYYCARDGYCPNGICTYYGMDVWGQGTTVTVSA
VL: EIVMTQSPATLSVSPGERATLSCRASQSVSSNLAWYQQKPGQAPRLLIYGASTRATGIPARFSGSGSGTEFTLTITGLQSEDFAVYYCQQYDKWPPAYSFGQGTKVEIK
B7: antibody 1859 (antibody, V domains shown)
VH: EVQLVESGGGLVKPGGSLRLSCAASGFSFNTYTMNWVRQAPGKGLEWVSYISSSSSYKYYSDSVKGRFSVSRDNAKKSLYLQMNGLRAEDTAVYYCARDGYCPNGVCTYYGMDVWGQGTTVTVSL
VL: B6 VL with T76S, Y87F, D92S, S99T, V106L
B8: antibody 1815 (antibody, V domains shown)
VH: B2 VH with Q39K, T40S, Q43K, T68S, K71I, D72G, A74S, K76R, T83S
VL: QSVLTQPPSVSGAPGQRVTISCTGSSSNIGAGYDVHWYQQLPGTAPKLLIYANTHRPSGVPDRFSASKSGTSASLAIAGLQAEDEGDYYCQSYDGSLSESAVFGGGTRLTVL
B9: antibody 1826 (antibody, V domains shown)
VH: QVQLQESGPGLVKPSETLSLTCSVTGGSTNYYYWSWIRQPPGKGLEWIGYIYYSGTTNYNPSLKDRVTMSVDKSKTQLSLKLNSVTAADTAVYYCARHARHCTNGVCQTYYYYGLDVWGLGTTVAVSA
VL: QSVLTQPPSVSAAPGQRVTISCSGSSSNIGAGYDVHWYQHLPGTAPKLLIYNNNNRPSGVPDRFSASRSGTSASLAITGVQTEDEADYYCQSFDGRLSESGVFGGGTKLTVL
B10: antibody 1963 (antibody, V domains shown)
VH: QVQLVQSGAEVKKPGASVKVSCKASGYTFTSNYIHWLRQAPGQGLEWMGIIKPSGTSTISAQKFRGRVAMTRDTSTSTVYMELSSLRFEDTAIYYCARDAKRALETWGQGTMVTVSS
VL: QSVLTQPPSVSAAPGQKVTISCSGSSSNIGNNYVSWYQQLPGTAPKLLIYDNNKRPSGIPDRFSGSRSGTSATLGITGLQTGDEADYYCGTWDSSLSAWVFGGGTKLTVL
B11: antibody 1864 (antibody, V domains shown)
VH: B2 VH with S23T, T40P, Q43K, K71V, T73S, A74S, K76S, T83S
VL: B8 VL with A52G, T54S, H55N, A82P, A101G
B12: antibody 1870 (antibody, V domains shown)
VH: B2 VH with T40P, Q43K, K71V, A74S, K76N, T83S
VL: B8 VL with A52G, T54S, H55N, A101G
B13: antibody 1851 (antibody, V domains shown)
VH: B2 VH with S23T, T40S, Q43K, K71V, T73S, A74S, K76S, T83S
VL: B8 VL with A52G, T54S, H55N, A82P, A101G
B14: antibody 1969 (antibody, V domains shown)
VH: QVQLVQSGAEVKKPGASVKVSCKASGYSFTDYYIHWVRQAPGQGLEWMGIIKPSAGATVYAQKFRGRVSMTSDTSTGTVYMELSGLKSEDTAVYYCARDYNRSFDFWGQGTLVTVSS
VL: QSVLTQPPSVSAAPGQTVTISCAGSTSNIGKNYVSWYQHLPGTAPKLLIYDNIKRPSGIPDRFSGSTSGTSATLGITELQTGDEADYYCGTWDSSLSAYVFGTGTKVTVL
B15: antibody 1915 (antibody, V domains shown)
VH: QVQLVESGGGVVQPGRSLRLSCAASGFTFSSYAMHWVRQAPGKGLEWVAVISYDGSNKYYADSVKGRFTISRDNSKNTLYLQMDSLRAQDTAVYYCATPRDMFSSGWSSPFDYWGQGTLVTVSS
VL: DIQMTQSPSSLSASVGDRVTITCQASQDISIYLTWYQQKPGKAPKLLIYGASNLEVEVPSRFSGSGSGTEFTLTISSLQPEDFATYFCQHSDDLPVTFGGGTKVEVK
B16: antibody 1959 (antibody, V domains shown)
VH: QVQLVQSGTEVKKPGSSVRVSCQASGDTFTSHAIIWIRQAPGQGLEYLGRIIPVLDITNAAQRFLGRLTLTADKSTTTAYMELSSLRSEDTAVYYCARAPFGLIVMYDHWGQGTLVTVTA
VL: EIVLTQSPGTLSLSPGERATLSCRASQSVSGNFLAWYQQKPGQAPRLLIHETSKRATGIPDRVSGGGSGTDFTLTISRLEPEDFAVYHCQQYGTTAVTFGQGTRLDMK
B17: antibody 1867 (antibody, V domains shown)
VH: B7 VH with N30S, K58R, S61A, K65R, K77N, A88V, L125S
VL: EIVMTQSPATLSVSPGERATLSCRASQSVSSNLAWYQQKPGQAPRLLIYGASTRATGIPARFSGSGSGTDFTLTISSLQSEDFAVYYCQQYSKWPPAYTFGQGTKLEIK
B18: antibody 1888 (antibody, V domains shown)
VH: B6 VH with V23A, S28T, G30S, L31S, T33S, T55S, V68F, N104K, I106V
VL: EIVMTQSPATLSVSPGERATLSCRASQSVRSRLAWFQQKPGQPPRLLIYDASIRATGIPDRFSGSGSGTEFTLIISGLQSEDFAVYYCQQYDNWPPAYTFGQGTKLEIK
B19: antibody 1856 (antibody, V domains shown)
VH: B7 VH with Q3R, N30S, T31L, K58R, S61A, K77N, S78T, Q82E, N104R, L125A
VL: EIVMTQSPATLSVSPGERATLSCRASQTIGIRLAWYQQKPGQAPRLLIYDATIRATGIPARFSGSGSGTDFTLTISGLQSEDFAVYYCQRYNNWPPVYTFGQGTKLEMK

Each binder was assayed against SARS-CoV-2 spike protein, B1.1.7 (alpha variant), borne on lentiviral pseudovirus (SARS-CoV-2, B1.1.7) (assay: cell-based or functional assay).
In the case of B1, the “Pseudo Neut, B1.1.7 IC50 (pM)” value is reported as 200 pM. With B2 the “Pseudo Neut, B1.1.7 IC50 (pM)” value was 237 pM. In the case of B3, the “Pseudo Neut, B1.1.7 IC50 (pM)” value is reported as 13 pM. B4 was tested, and the “Pseudo Neut, B1.1.7 IC50 (pM)” value was roughly 7 pM. With B5 the “Pseudo Neut, B1.1.7 IC50 (pM)” value was 13 pM. B6 was tested, and the “Pseudo Neut, B1.1.7 IC50 (pM)” value was 850 pM. B7 was tested, and the “Pseudo Neut, B1.1.7 IC50 (pM)” value was 230 pM.

The binders below were run against SARS-CoV-2 spike protein, B1.351 (beta variant), borne on lentiviral pseudovirus (SARS-CoV-2, B1.351) (assay: cell-based or functional assay).
With B2 the “Pseudo Neut, B1.351 IC50 (pM)” value was 32 pM. B8 was tested, and the “Pseudo Neut, B1.351 IC50 (pM)” value was 345 pM. B3 was tested, and the “Pseudo Neut, B1.351 IC50 (pM)” value was greater than 18000 pM. In the case of B6, the “Pseudo Neut, B1.351 IC50 (pM)” value is reported as 133 pM. For B7, the “Pseudo Neut, B1.351 IC50 (pM)” value was 73 pM.

The binders below were run against SARS-CoV-2 spike protein on live virus, strain USA-WA1/2020 (SARS-CoV-2, WA01/2020 strain, UniProt P0DTC2 14-1273) (assay: cell-based or functional assay).
For B1, the “Live Neut, WA1/2020 IC50 (pM)” value was 36 pM. With B3 the “Live Neut, WA1/2020 IC50 (pM)” value was 171 pM. In the case of B4, the “Live Neut, WA1/2020 IC50 (pM)” value is reported as 12 pM. In the case of B5, the “Live Neut, WA1/2020 IC50 (pM)” value is reported as 14 pM.

What follows are binders tested against T1, Receptor-binding domain (RBD) of the SARS-CoV-2 spike protein, WA01/2020 strain (SARS-CoV-2, WA01/2020 strain, UniProt P0DTC2 319-541) (assay: dose-response ELISA on coated antigen).
B1 showed an EC50 of 25 pM. Work on B3 yielded an EC50 of 17 pM. B4 showed an EC50 of 73 pM. With B5 the EC50 was 88 pM.

The binders below were run against T1, Receptor-binding domain (RBD) of the … (assay: ELISA, antibody blocks RBD binding to human ACE2).
For B1, the IC50 was 727 pM. Binder B3 has an IC50 of 510 pM. Work on B4 yielded an IC50 of 930 pM. B5 was tested, and the IC50 was 1410 pM.

These binders were tested against T1, Receptor-binding domain (RBD) of the … (assay: SPR (Biacore 8K), antigen immobilized, antibody injected).
Work on B1 yielded a Kd of 115 pM. For B3, the Kd was 29 pM. Work on B4 yielded a Kd of less than 0.7 pM. B5 gave a Kd of 1.1 pM.

The binders below were run against T1, Receptor-binding domain (RBD) of the … (assay: ELISA screening, antibody concentration not given).
B9: no binding (tested: not printed). B10: no binding (tested: not printed). B2: no binding (tested: not printed). B8: no binding (tested: not printed). B11: no binding (tested: not printed). B12: no binding (tested: not printed). B13: no binding (tested: not printed). B14: no binding (tested: not printed). B15: no binding (tested: not printed). B16: no binding (tested: not printed). B17: no binding (tested: not printed). B18: no binding (tested: not printed). B7: no binding (tested: not printed). B19: no binding (tested: not printed).
